Sequences and labels used below:
B1: CIgG4F3A1(G4S)1 (Fc fusion)
chain 1: GPPCPPCPAPEFLGGPSVFLFPPKPKDTLMISRTPEVTCVVVDVSQEDPEVQFNWYVDGVEVHNAKTKPREEQFNSTYRVVSVLTVLHQDWLNGKEYKCKVSNKGLPSSIEKTISKAKGQPREPQVYTLPPCQEEMTKNQVSLWCLVKGFYPSDIAVEWESNGQPENNYKTTPPVLDSDGSFFLYSRLTVDKSRWQEGNVFSCSVMHEALHNHYTQKSLSLSLGKGGGGSDVQLQESGGGLVQAGGSLKLSCAASRGSLSRWDVAWFRQAPGKERSFVTRISWSGTTSYYADAVKGRFAISRDNAKNTVYLQMNSLKPEDTAVYYCAVALYGNRGYYDVNAHSYWGQGTQVTVS
chain 2: GPPCPPCPAPEFLGGPSVFLFPPKPKDTLMISRTPEVTCVVVDVSQEDPEVQFNWYVDGVEVHNAKTKPREEQFNSTYRVVSVLTVLHQDWLNGKEYKCKVSNKGLPSSIEKTISKAKGQPREPQVCTLPPSQEEMTKNQVSLSCAVKGFYPSDIAVEWESNGQPENNYKTTPPVLDSDGSFFLVSRLTVDKSRWQEGNVFSCSVMHEALHNHYTQKSLSLSLGKGGGGSEVQLLESGGGLVQPGGSLRLSCAASGFTFGNYDMAWVRQAPGKRPEWVSSIDTGGDITHYADSVKGRFTISRDNAKNTLYLQMNSLRPEDTAVYWCATDEEYALGPNEFDYYGQGTLVTVSS
B2: NIgG4F4A1(RS) (Fc fusion)
chain 1: DVQLQESGGGLVQAGGSLRLSCAVSGLSFSSMGWFRQPPGKEREFVAAISLYSGSTYYADSVKGRFTISSDNAKSTVYLQMNSLKPEDAAVYFCAADRQRTWSTFYASRQATYNYWGQGTQVTVTSRSGPPCPPCPAPEFLGGPSVFLFPPKPKDTLMISRTPEVTCVVVDVSQEDPEVQFNWYVDGVEVHNAKTKPREEQFNSTYRVVSVLTVLHQDWLNGKEYKCKVSNKGLPSSIEKTISKAKGQPREPQVYTLPPCQEEMTKNQVSLWCLVKGFYPSDIAVEWESNGQPENNYKTTPPVLDSDGSFFLYSRLTVDKSRWQEGNVFSCSVMHEALHNHYTQKSLSLSLGK
chain 2: EVQLLESGGGLVQPGGSLRLSCAASGFTFGNYDMAWVRQAPGKRPEWVSSIDTGGDITHYADSVKGRFTISRDNAKNTLYLQMNSLRPEDTAVYWCATDEEYALGPNEFDYYGQGTLVTVSSRSGPPCPPCPAPEFLGGPSVFLFPPKPKDTLMISRTPEVTCVVVDVSQEDPEVQFNWYVDGVEVHNAKTKPREEQFNSTYRVVSVLTVLHQDWLNGKEYKCKVSNKGLPSSIEKTISKAKGQPREPQVCTLPPSQEEMTKNQVSLSCAVKGFYPSDIAVEWESNGQPENNYKTTPPVLDSDGSFFLVSRLTVDKSRWQEGNVFSCSVMHEALHNHYTQKSLSLSLGK
B3: CIgG4F3A1(G4S)2 (Fc fusion)
chain 1: GPPCPPCPAPEFLGGPSVFLFPPKPKDTLMISRTPEVTCVVVDVSQEDPEVQFNWYVDGVEVHNAKTKPREEQFNSTYRVVSVLTVLHQDWLNGKEYKCKVSNKGLPSSIEKTISKAKGQPREPQVYTLPPCQEEMTKNQVSLWCLVKGFYPSDIAVEWESNGQPENNYKTTPPVLDSDGSFFLYSRLTVDKSRWQEGNVFSCSVMHEALHNHYTQKSLSLSLGKGGGGSGGGGSDVQLQESGGGLVQAGGSLKLSCAASRGSLSRWDVAWFRQAPGKERSFVTRISWSGTTSYYADAVKGRFAISRDNAKNTVYLQMNSLKPEDTAVYYCAVALYGNRGYYDVNAHSYWGQGTQVTVS
chain 2: GPPCPPCPAPEFLGGPSVFLFPPKPKDTLMISRTPEVTCVVVDVSQEDPEVQFNWYVDGVEVHNAKTKPREEQFNSTYRVVSVLTVLHQDWLNGKEYKCKVSNKGLPSSIEKTISKAKGQPREPQVCTLPPSQEEMTKNQVSLSCAVKGFYPSDIAVEWESNGQPENNYKTTPPVLDSDGSFFLVSRLTVDKSRWQEGNVFSCSVMHEALHNHYTQKSLSLSLGKGGGGSGGGGSEVQLLESGGGLVQPGGSLRLSCAASGFTFGNYDMAWVRQAPGKRPEWVSSIDTGGDITHYADSVKGRFTISRDNAKNTLYLQMNSLRPEDTAVYWCATDEEYALGPNEFDYYGQGTLVTVSS
B4: CIgG4F3A1(G4S)3 (Fc fusion)
chain 1: GPPCPPCPAPEFLGGPSVFLFPPKPKDTLMISRTPEVTCVVVDVSQEDPEVQFNWYVDGVEVHNAKTKPREEQFNSTYRVVSVLTVLHQDWLNGKEYKCKVSNKGLPSSIEKTISKAKGQPREPQVYTLPPCQEEMTKNQVSLWCLVKGFYPSDIAVEWESNGQPENNYKTTPPVLDSDGSFFLYSRLTVDKSRWQEGNVFSCSVMHEALHNHYTQKSLSLSLGKGGGGSGGGGSGGGGSDVQLQESGGGLVQAGGSLKLSCAASRGSLSRWDVAWFRQAPGKERSFVTRISWSGTTSYYADAVKGRFAISRDNAKNTVYLQMNSLKPEDTAVYYCAVALYGNRGYYDVNAHSYWGQGTQVTVS
chain 2: GPPCPPCPAPEFLGGPSVFLFPPKPKDTLMISRTPEVTCVVVDVSQEDPEVQFNWYVDGVEVHNAKTKPREEQFNSTYRVVSVLTVLHQDWLNGKEYKCKVSNKGLPSSIEKTISKAKGQPREPQVCTLPPSQEEMTKNQVSLSCAVKGFYPSDIAVEWESNGQPENNYKTTPPVLDSDGSFFLVSRLTVDKSRWQEGNVFSCSVMHEALHNHYTQKSLSLSLGKGGGGSGGGGSGGGGSEVQLLESGGGLVQPGGSLRLSCAASGFTFGNYDMAWVRQAPGKRPEWVSSIDTGGDITHYADSVKGRFTISRDNAKNTLYLQMNSLRPEDTAVYWCATDEEYALGPNEFDYYGQGTLVTVSS
B5: NIgG4F4A1(G4S)3 (Fc fusion)
chain 1: DVQLQESGGGLVQAGGSLRLSCAVSGLSFSSMGWFRQPPGKEREFVAAISLYSGSTYYADSVKGRFTISSDNAKSTVYLQMNSLKPEDAAVYFCAADRQRTWSTFYASRQATYNYWGQGTQVTVTSGGGGSGGGGSGGGGSGPPCPPCPAPEFLGGPSVFLFPPKPKDTLMISRTPEVTCVVVDVSQEDPEVQFNWYVDGVEVHNAKTKPREEQFNSTYRVVSVLTVLHQDWLNGKEYKCKVSNKGLPSSIEKTISKAKGQPREPQVYTLPPCQEEMTKNQVSLWCLVKGFYPSDIAVEWESNGQPENNYKTTPPVLDSDGSFFLYSRLTVDKSRWQEGNVFSCSVMHEALHNHYTQKSLSLSLGK
chain 2: EVQLLESGGGLVQPGGSLRLSCAASGFTFGNYDMAWVRQAPGKRPEWVSSIDTGGDITHYADSVKGRFTISRDNAKNTLYLQMNSLRPEDTAVYWCATDEEYALGPNEFDYYGQGTLVTVSSGGGGSGGGGSGGGGSGPPCPPCPAPEFLGGPSVFLFPPKPKDTLMISRTPEVTCVVVDVSQEDPEVQFNWYVDGVEVHNAKTKPREEQFNSTYRVVSVLTVLHQDWLNGKEYKCKVSNKGLPSSIEKTISKAKGQPREPQVCTLPPSQEEMTKNQVSLSCAVKGFYPSDIAVEWESNGQPENNYKTTPPVLDSDGSFFLVSRLTVDKSRWQEGNVFSCSVMHEALHNHYTQKSLSLSLGK
B6: NIgG4F4A1(G4S)1 (Fc fusion)
chain 1: DVQLQESGGGLVQAGGSLRLSCAVSGLSFSSMGWFRQPPGKEREFVAAISLYSGSTYYADSVKGRFTISSDNAKSTVYLQMNSLKPEDAAVYFCAADRQRTWSTFYASRQATYNYWGQGTQVTVTSGGGGSGPPCPPCPAPEFLGGPSVFLFPPKPKDTLMISRTPEVTCVVVDVSQEDPEVQFNWYVDGVEVHNAKTKPREEQFNSTYRVVSVLTVLHQDWLNGKEYKCKVSNKGLPSSIEKTISKAKGQPREPQVYTLPPCQEEMTKNQVSLWCLVKGFYPSDIAVEWESNGQPENNYKTTPPVLDSDGSFFLYSRLTVDKSRWQEGNVFSCSVMHEALHNHYTQKSLSLSLGK
chain 2: EVQLLESGGGLVQPGGSLRLSCAASGFTFGNYDMAWVRQAPGKRPEWVSSIDTGGDITHYADSVKGRFTISRDNAKNTLYLQMNSLRPEDTAVYWCATDEEYALGPNEFDYYGQGTLVTVSSGGGGSGPPCPPCPAPEFLGGPSVFLFPPKPKDTLMISRTPEVTCVVVDVSQEDPEVQFNWYVDGVEVHNAKTKPREEQFNSTYRVVSVLTVLHQDWLNGKEYKCKVSNKGLPSSIEKTISKAKGQPREPQVCTLPPSQEEMTKNQVSLSCAVKGFYPSDIAVEWESNGQPENNYKTTPPVLDSDGSFFLVSRLTVDKSRWQEGNVFSCSVMHEALHNHYTQKSLSLSLGK
B7: CIgG4F4A1(RS) (Fc fusion)
chain 1: GPPCPPCPAPEFLGGPSVFLFPPKPKDTLMISRTPEVTCVVVDVSQEDPEVQFNWYVDGVEVHNAKTKPREEQFNSTYRVVSVLTVLHQDWLNGKEYKCKVSNKGLPSSIEKTISKAKGQPREPQVYTLPPCQEEMTKNQVSLWCLVKGFYPSDIAVEWESNGQPENNYKTTPPVLDSDGSFFLYSRLTVDKSRWQEGNVFSCSVMHEALHNHYTQKSLSLSLGKRSDVQLQESGGGLVQAGGSLRLSCAVSGLSFSSMGWFRQPPGKEREFVAAISLYSGSTYYADSVKGRFTISSDNAKSTVYLQMNSLKPEDAAVYFCAADRQRTWSTFYASRQATYNYWGQGTQVTVTS
chain 2: GPPCPPCPAPEFLGGPSVFLFPPKPKDTLMISRTPEVTCVVVDVSQEDPEVQFNWYVDGVEVHNAKTKPREEQFNSTYRVVSVLTVLHQDWLNGKEYKCKVSNKGLPSSIEKTISKAKGQPREPQVCTLPPSQEEMTKNQVSLSCAVKGFYPSDIAVEWESNGQPENNYKTTPPVLDSDGSFFLVSRLTVDKSRWQEGNVFSCSVMHEALHNHYTQKSLSLSLGKRSEVQLLESGGGLVQPGGSLRLSCAASGFTFGNYDMAWVRQAPGKRPEWVSSIDTGGDITHYADSVKGRFTISRDNAKNTLYLQMNSLRPEDTAVYWCATDEEYALGPNEFDYYGQGTLVTVSS
B8: NIgG4F4A1(G4S)2 (Fc fusion)
chain 1: DVQLQESGGGLVQAGGSLRLSCAVSGLSFSSMGWFRQPPGKEREFVAAISLYSGSTYYADSVKGRFTISSDNAKSTVYLQMNSLKPEDAAVYFCAADRQRTWSTFYASRQATYNYWGQGTQVTVTSGGGGSGGGGSGPPCPPCPAPEFLGGPSVFLFPPKPKDTLMISRTPEVTCVVVDVSQEDPEVQFNWYVDGVEVHNAKTKPREEQFNSTYRVVSVLTVLHQDWLNGKEYKCKVSNKGLPSSIEKTISKAKGQPREPQVYTLPPCQEEMTKNQVSLWCLVKGFYPSDIAVEWESNGQPENNYKTTPPVLDSDGSFFLYSRLTVDKSRWQEGNVFSCSVMHEALHNHYTQKSLSLSLGK
chain 2: EVQLLESGGGLVQPGGSLRLSCAASGFTFGNYDMAWVRQAPGKRPEWVSSIDTGGDITHYADSVKGRFTISRDNAKNTLYLQMNSLRPEDTAVYWCATDEEYALGPNEFDYYGQGTLVTVSSGGGGSGGGGSGPPCPPCPAPEFLGGPSVFLFPPKPKDTLMISRTPEVTCVVVDVSQEDPEVQFNWYVDGVEVHNAKTKPREEQFNSTYRVVSVLTVLHQDWLNGKEYKCKVSNKGLPSSIEKTISKAKGQPREPQVCTLPPSQEEMTKNQVSLSCAVKGFYPSDIAVEWESNGQPENNYKTTPPVLDSDGSFFLVSRLTVDKSRWQEGNVFSCSVMHEALHNHYTQKSLSLSLGK

The source of these data is US20250171562A1.

The target of the experiment is mixture of three Der p 2 specific recombinant human IgE clones H10, H12, P4E (human) (UniProt P01854). Nature of the experiment: RBL-SX38 IgE displacement, FACS.
Chain of mixture of three Der p 2 specific recombinant human IgE clones H10, H12, P4E (human) (P01854 other isoform, or with tags, fused parts or gaps): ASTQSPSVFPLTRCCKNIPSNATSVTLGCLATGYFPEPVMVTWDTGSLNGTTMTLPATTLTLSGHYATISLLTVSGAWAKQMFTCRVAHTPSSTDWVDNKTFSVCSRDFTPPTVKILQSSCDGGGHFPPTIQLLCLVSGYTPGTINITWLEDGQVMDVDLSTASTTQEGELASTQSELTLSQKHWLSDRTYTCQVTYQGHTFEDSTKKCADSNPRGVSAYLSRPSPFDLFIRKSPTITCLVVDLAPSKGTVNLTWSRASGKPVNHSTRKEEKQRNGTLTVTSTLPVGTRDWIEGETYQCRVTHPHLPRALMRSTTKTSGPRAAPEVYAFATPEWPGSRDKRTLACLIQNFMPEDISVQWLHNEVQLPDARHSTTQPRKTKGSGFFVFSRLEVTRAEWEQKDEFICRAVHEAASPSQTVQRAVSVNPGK
As to B1, the Max effect/effect 1 µM was 35%. For the molecule B2, the EC50 is 331 nM and the Max effect/effect 1 µM is 74%.

Regarding B3, the Max effect/effect 1 µM came out at 0%. Turning to B4, the Max effect/effect 1 µM came out at 2%. Take B5: the EC50 came out at 44.5 nM and the Max effect/effect 1 µM was determined as 85%. On the same counts, the results for B6 are 21.6 nM and 100%. The corresponding values for B7 are 1.2 nM and 99%. The corresponding values for B8 are 21.1 nM and 97%.
